According to patent US20230002489A1 (SHANGHAI EPIMAB BIOTHERAPEUTICS, published 2023):

How the values were obtained:
[1] = target: T1, BCMA on HEK293F-BCMA-NF-kB-luc cells (clone 1H2) (UniProt Q02223 1-184, limits assumed); test: cell-based or functional assay
T1 sequence (looked up): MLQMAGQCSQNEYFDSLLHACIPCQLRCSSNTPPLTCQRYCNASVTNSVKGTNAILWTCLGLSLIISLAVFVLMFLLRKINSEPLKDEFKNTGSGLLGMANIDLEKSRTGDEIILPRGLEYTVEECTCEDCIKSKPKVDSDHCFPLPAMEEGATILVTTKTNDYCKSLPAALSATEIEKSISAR

[2] = target: T2, recombinant human BCMA extracellular domain/Fc dimer (human); test: SPR, Biacore T200, 25 C; antibody captured on anti-mouse IgG Fc, BCMA(ECD)/Fc injected
T2 construct: also called Human BCMA (ECD); human BCMA(ECD)/Fc
Protocol: (§1) Briefly, goat anti-mouse IgG Fc antibody was directly immobilized across a biosensor chip, and antibody samples were injected over reaction matrices at a flow rate of 5 μl/min. Mouse anti-BCMA IgG test antibody was injected over the immobilized surface and captured by the immobilized anti-Fc antibodies. Human and cynomolgus BCMA(ECD)/Fc target polypeptides were then injected over the captured mouse anti-BCMA IgG surface. The association and dissociation rate constants, kₒₙ (M⁻¹s⁻¹) and koff (s⁻¹), respectively, were determined with a continuous flow rate of 30 μl/min. Rate constants were derived by making kinetic binding measurements at five different concentrations of target BCMA(ECD) polypeptide. The equilibrium dissociation constant KD (M) of the reaction between antibodies and related target proteins was then calculated from the kinetic rate constants using the formula KD=koff/kₒₙ. Kinetic constants were determined by processing and fitting the data to a 1:1 binding model using Biacore analysis software.

[3] = target: T3, cynomolgus BCMA(ECD)/Fc target polypeptide (cynomolgus); test: as above
T3 construct: extracellular domain; also called Cyno BCMA (ECD); cynoBCMA/Fc
Protocol: as §1

BCMA on NCI-H929 cells = target: T4, BCMA on NCI-H929 cells (human, UniProt Q02223 1-184); test: cell-based or functional assay
T4 sequence (looked up): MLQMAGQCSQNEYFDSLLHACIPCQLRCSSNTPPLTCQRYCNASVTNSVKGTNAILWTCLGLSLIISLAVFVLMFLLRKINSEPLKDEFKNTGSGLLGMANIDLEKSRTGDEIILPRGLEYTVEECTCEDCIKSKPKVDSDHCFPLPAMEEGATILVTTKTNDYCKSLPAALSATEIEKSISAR

[4] = target: T1, BCMA on HEK293F-BCMA-NF-kB-luc cells …; test: cell-based or functional assay; remark: listed apart in the source
[5] = target: T5, human CD3 on the surface of Jurkat cells (human, UniProt P07766 23-207; P09693 23-182; P04234 22-171); test: cell binding assay, Jurkat cells
T5 construct: whole, on cells; Endogenous CD3 complex of the Jurkat T cell line; also called cell surface CD3 target on Jurkat cells; CD3-expressing Jurkat cells

[6] = target: T6, recombinant huCD3εγ/Fc fusion protein (fusion protein heterodimer) (human); test: ELISA on plate-coated human CD3e/g heterodimer-Fc, OD450nm, unit taken from the concentration axis
T6 construct: also called huCD3/Fc dimer; heterodimeric CD3εγ/Fc fusion protein
Protocol: (§2) The binding properties of the isolated murine anti-CD3 antibodies were measured with ELISA as follows: Heterodimeric CD3εγ/Fc fusion protein was coated at 1 μg/mL on 96-well plates at 4° C. overnight. Plates were washed once with washing buffer (PBS containing 0.05% Tween 20) and blocked with ELISA blocking buffer (1% BSA in PBS containing 0.05% Tween 20) at room temperature for 2 hours. Anti-CD3 antibodies were then added and incubated at 37° C. for 1 hour. Plates were washed three times with washing buffer. HRP labeled anti-mouse IgG secondary antibody (Sigma, Cat. #A0168) was added and the plates were incubated at 37° C. for 30 minutes then washed 5 times in washing buffer. 100 μl of tetramethylbenzidine (TMB) chromogenic solution was added to each well. Following color development, the reaction was stopped with 1 Normal HCl and absorbance at 450 nm was measured on a Varioskan™ LUX microplate reader (ThermoFisher Scientific). Binding signals were plotted against antibody concentration with GraphPad Prism 5.0 software and EC50s were calculated accordingly.

[7] = target: T7, cynoCD3εγ/Fc fusion protein (cynomolgus monkey, UniProt Q95LI5 22-117; Q95LI7 23-113); test: ELISA on plate-coated cyno CD3e/g heterodimer-Fc, OD450nm, unit taken from the concentration axis
T7 construct: also called cynomolgus monkey CD3ε/γ heterodimer-Fc fusion protein; not shown: linker and Fc not described for the cynomolgus construct
T7 sequence (looked up) 1: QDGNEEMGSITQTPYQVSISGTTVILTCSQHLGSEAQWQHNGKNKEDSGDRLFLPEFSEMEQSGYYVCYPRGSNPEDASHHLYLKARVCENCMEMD
T7 sequence (looked up) 2: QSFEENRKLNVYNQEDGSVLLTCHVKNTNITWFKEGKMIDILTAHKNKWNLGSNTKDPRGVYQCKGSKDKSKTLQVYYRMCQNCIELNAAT
Protocol: as §2

[8] = target: T5, human CD3 on the surface of Jurkat cells; test: flow cytometry on Jurkat cells, MFI against antibody conc. (nM)
Protocol: Different humanized VH and VK combinations led to humanized anti-CD3 variants with different CD3 binding affinities. The binding activity of the humanized variants of mAbCD3-001 were tested via flow cytometry with the human CD3-expressing Jurkat T cell line. 5×10⁵ Jurkat cells in FACS buffer were seeded into each well of a 96-well plate. Cells were centrifuged at 400 g for 5 minutes and supernatants were discarded. For each well, 100 μl of serially diluted antibodies were then added and mixed with the cells. After 40 minutes incubation at 4° C., plates were washed several times to remove excess antibodies. […] After another round of centrifugation and a washing step, cells were resuspended in FACS buffer for reading on a CytoFLEX Flow Cytometer (Beckman Coulter). Median Fluorescence Intensity (MFI) readouts were plotted against antibody concentration and analyzed with GraphPad Prism 5.0 software.

T5 sequence (P07766 23-207, chain 1 of 3): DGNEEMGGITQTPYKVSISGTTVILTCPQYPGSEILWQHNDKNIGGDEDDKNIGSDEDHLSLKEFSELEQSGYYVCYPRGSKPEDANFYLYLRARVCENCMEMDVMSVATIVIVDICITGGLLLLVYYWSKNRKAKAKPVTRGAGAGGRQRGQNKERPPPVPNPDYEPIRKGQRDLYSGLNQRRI
T5 sequence (P09693 23-182, chain 2 of 3): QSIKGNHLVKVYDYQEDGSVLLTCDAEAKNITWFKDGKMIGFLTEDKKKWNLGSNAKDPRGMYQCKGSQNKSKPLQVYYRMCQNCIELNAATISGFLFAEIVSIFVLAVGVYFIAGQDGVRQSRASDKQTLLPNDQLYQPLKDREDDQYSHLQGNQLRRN
T5 sequence (P04234 22-171, chain 3 of 3): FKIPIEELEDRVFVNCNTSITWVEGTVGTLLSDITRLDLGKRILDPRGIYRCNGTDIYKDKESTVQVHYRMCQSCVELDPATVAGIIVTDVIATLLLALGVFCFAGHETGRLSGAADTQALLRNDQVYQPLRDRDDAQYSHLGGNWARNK
T6 sequence (chain, as listed by the source limits assumed, chain 1 of 2): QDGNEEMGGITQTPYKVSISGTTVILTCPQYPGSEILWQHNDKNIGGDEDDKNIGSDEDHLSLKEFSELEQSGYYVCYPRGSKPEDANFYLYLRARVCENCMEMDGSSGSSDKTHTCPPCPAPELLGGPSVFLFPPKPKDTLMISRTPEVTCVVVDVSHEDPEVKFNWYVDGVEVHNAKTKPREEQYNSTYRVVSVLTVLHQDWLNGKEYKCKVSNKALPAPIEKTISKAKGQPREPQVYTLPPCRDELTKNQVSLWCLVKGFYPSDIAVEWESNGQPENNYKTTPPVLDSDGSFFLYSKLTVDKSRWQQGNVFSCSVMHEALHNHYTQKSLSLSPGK
T6 sequence (chain, as listed by the source limits assumed, chain 2 of 2): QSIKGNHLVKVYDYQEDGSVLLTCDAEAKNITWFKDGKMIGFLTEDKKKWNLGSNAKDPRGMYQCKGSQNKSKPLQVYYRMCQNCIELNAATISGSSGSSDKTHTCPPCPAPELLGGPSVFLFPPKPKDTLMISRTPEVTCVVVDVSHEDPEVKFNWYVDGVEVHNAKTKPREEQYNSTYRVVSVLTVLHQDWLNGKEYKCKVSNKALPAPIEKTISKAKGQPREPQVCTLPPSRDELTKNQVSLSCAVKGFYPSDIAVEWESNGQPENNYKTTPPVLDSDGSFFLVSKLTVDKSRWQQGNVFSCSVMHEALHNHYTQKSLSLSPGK

B1: mAbBCMA-003 (antibody, V domains shown)
VH: EVQLQQSGTVLARPGASVRMSCKASGYIFPNFWMHWVKQRPGQGLDWIGAFYPGNDDTYYNQKFKGKAKLTAVTSASTAYMELSSLTSEDSAVYYCARSGYYGSSDAMDYWGQGTSVTVSS
VL: DIQMTQSPASLSASVGETVTVTCGASENIYGALNWYQRKQGKSPQLLIYGATNLADGISSRFSGSGSGRQFSLKISSLLPDDVATYFCQSVLTTPWTFGGGTKLEIK
notes: Mouse anti-BCMA IgG from hybridoma
B1 was tested, and the “EC50 of inhibition of the BAFF-induced NF-kB luciferase signal in HEK293F-BCMA-NF-kB-luc cells (inhibition %), unit from the axis” value [1] was 3.87 nM, the Kd [2] was 0.408 nM and the koff [2] was 1.85e-05 s⁻¹. The kon [2] was 45400 M⁻¹ s⁻¹, the Kd [3] was 3.9 nM and the koff [3] was 0.000236 s⁻¹. For the same binder, the kon [3] was 60600 M⁻¹ s⁻¹, the “EC50 of inhibition of BAFF-induced NF-kB phosphorylation in NCI-H929 cells (inhibition %), unit from the axis” value (BCMA on NCI-H929 cells) was 16.7 nM and the “EC50 of inhibition of the APRIL-induced NF-kB luciferase signal in HEK293F-BCMA-NF-kB-luc cells (inhibition %), unit from the axis” value [4] was 6.18 nM.

B2: mAbCD3-001 (antibody, V domains shown)
VH: QVQLQQSGPDLVKPGASVKISCKASGFSFTNYYVHWMKQRPGQGLEWIGWISPGSDNTKYNEKFKGKATLTADTSSTTAYMQLSSLTSEDSAVYYCARDDYGNYYFDYWGRGSTLTVSS
VL: DIVMSQSPSSLAVSAGEKVTMTCKSSQSLLNSRTRKNYLAWYQQKPGQSPKLLIYWASTRESGVPDRFTGSGSGTDFTLTISSVQAEDLAVYYCKQSYILRTFGGGTKLEIK
notes: Murine hybridoma monoclonal antibody
In the case of B2, the binding result [5] is reported as “binds”, the EC50 [6] is reported as 0.028 µg/mL and the EC50 [7] is reported as 0.0235 µg/mL.

B3: mAbCD3-002 (antibody, V domains shown)
VH: QVQLQQSGPELVKPGASVRISCKASGYTFTNYYIHWVKQRPGQGLEWIGWINLGDVNTKFNEKFKDKATLTADKSSTTAYMQLSSLTSEDSAVYFCARDGYSFYYFDFWGQGTTLTVSS
VL: DIVMSQSPSSLAVSVGEKVTMSCKASQSLFNSRTRKNYLAWYQQKPGQSPKLLIYWASTRESGVPDRFTGSGSGTDFIFTISSVQAEDLAIYYCIQSHTLRTFGGGTKLEIK
notes: as for B2
B3 was tested, and the binding result [5] was “binds”, the EC50 [6] was 0.01 µg/mL and the EC50 [7] was 0.0109 µg/mL.

B4: HuEM0006-01c (antibody, human IgG1, kappa, L234A L235A, V domains shown)
VH: QVQLQQSGPDLVKPGASVKISCKASGFSFTNYYVHWMKQRPGQGLEWIGWISPGSDNTKYNEKFKGKATLTADTSSTTAYMQLSSLTSEDSAVYYCARDDYGNYYFDYWGRGSTLTVSS
VL: DIVMSQSPSSLAVSAGEKVTMTCKSSQSLLNSRTRKNYLAWYQQKPGQSPKLLIYWASTRESGVPDRFTGSGSGTDFTLTISSVQAEDLAVYYCKQSYILRTFGGGTKLEIKR
notes: also called chimeric control antibody
B4: binds [8].
